B1: Lysozyme C, P61626 (parent)
chain: MKALIVLGLVLLSVTVQGKVFERCELARTLKRLGMDGYRGISLANWMCLAKWESGYNTRATNYNAGDRSTDYGIFQINSRYWCNDGKTPGAVNACHLSCSALLQDNIADAVACAKRVVRDPQGIRAWVAWRNRCQNRDVRQYVQGCGV

“And” between values parts separate entries of the source, which are not always exact repeats. Identical values can stand only once.

One data set covers variants of B1. The note with it: Homo sapiens; pH 2.61; Thermal; DSC; glycine 0.05 M; reversible: yes; structure 1LZ1; whole UniProt chain shown.
As to V92S, the Tm is 62.1 °C, the “unfolding enthalpy (calorimetric)” value came out at 105 kcal/mol and the “unfolding enthalpy (van 't Hoff)” value worked out at 110 kcal/mol.
Consider A50L, for which the midpoint of thermal melting (Tm) came out at 63.1 °C, the “unfolding enthalpy (calorimetric)” value was 94.9 kcal/mol and the “unfolding enthalpy (van 't Hoff)” value came to 97.8 kcal/mol.

The data set is the same for the next values; noted with them: Homo sapiens; pH 2.7; 64.9 °C; Thermal; DSC; glycine 0.05 M; reversible: yes; structure 1LZ1; whole UniProt chain shown.
V92S: the “ddG of mutation (higher = less stable)” value amounted to 0.38 kcal/mol.
The same measure, in the same setting: next, Q76G: -1.86 kcal/mol; A50L: 0.1 kcal/mol; R68G: -0.26 kcal/mol.
Same read-out and setting: the same measure for A114M: -0.02 kcal/mol; for G55Q: 0.26 kcal/mol; for V118F: 1.65 kcal/mol.
Still for that read-out and setting: next, E53L: 0.53 kcal/mol; H96G: 0.12 kcal/mol.

The data set is the same for the next values; noted with them: Homo sapiens; pH 2.7; Thermal; DSC; glycine 0.05 M; reversible: yes; structure 1LZ1; whole UniProt chain shown.
With V92S, the Tm is 63.7 °C and 64.9 °C; the “change of melting temperature, mutant - wild type (higher = more stable)” value (shortened to “change of melting temperature, mutant”) was -1.2 °C; the “heat capacity change of unfolding” value came to 1.22 kcal/mol/K; the “unfolding enthalpy (calorimetric)” value amounted to 108 kcal/mol.
Regarding Q76G, the “change of melting temperature, mutant” value is 5.7 °C; the “heat capacity change of unfolding” value was found to be 1.34 kcal/mol/K; the “unfolding enthalpy (calorimetric)” value amounted to 109 kcal/mol.
Turning to A50L, the Tm was 64.6 °C and 64.9 °C; the “change of melting temperature, mutant” value was -0.3 °C; the “heat capacity change of unfolding” value was found to be 1.27 kcal/mol/K; the “unfolding enthalpy (calorimetric)” value was found to be 98.2 kcal/mol.
For N45L, the Tm came to 65.3 °C and the “change of melting temperature, mutant” value was 0.4 °C.
Regarding R68G, the Tm was 65.8 °C and 64.9 °C; the “change of melting temperature, mutant” value came to 0.9 °C; the “heat capacity change of unfolding” value was determined as 1.46 kcal/mol/K; the “unfolding enthalpy (calorimetric)” value turned out to be 100 kcal/mol.
As to A114M, the Tm is 65 °C and 64.9 °C; the “change of melting temperature, mutant” value was determined as 0.1 °C; the “heat capacity change of unfolding” value is 1.31 kcal/mol/K; the “unfolding enthalpy (calorimetric)” value is 98.7 kcal/mol.
Regarding G55Q, the melting temperature (Tm) is 64.1 °C and 64.9 °C; the “change of melting temperature, mutant” value was -0.8 °C; the “heat capacity change of unfolding” value is 1.15 kcal/mol/K; the “unfolding enthalpy (calorimetric)” value came out at 108 kcal/mol.
For the variant V118F, the “change of melting temperature, mutant” value was -6.5 °C; the “heat capacity change of unfolding” value was 0.93 kcal/mol/K; the “unfolding enthalpy (calorimetric)” value was found to be 87.2 kcal/mol.
On to E53L, for which the Tm is 63.1 °C and 64.9 °C; the “change of melting temperature, mutant” value was -1.8 °C; the “heat capacity change of unfolding” value came out at 1.05 kcal/mol/K; the “unfolding enthalpy (calorimetric)” value is 99 kcal/mol.
As to H96G, the Tm is 64.4 °C and 64.9 °C; the “change of melting temperature, mutant” value is -0.5 °C; the “heat capacity change of unfolding” value worked out at 1.58 kcal/mol/K; the “unfolding enthalpy (calorimetric)” value was found to be 109 kcal/mol.

Still in this data set, the particulars now being: Homo sapiens; pH 2.83; Thermal; DSC; glycine 0.05 M; reversible: yes; structure 1LZ1; whole UniProt chain shown.
As to V92S, the Tm is 66 °C, the “unfolding enthalpy (calorimetric)” value turned out to be 109 kcal/mol and the “unfolding enthalpy (van 't Hoff)” value stood at 115 kcal/mol.
As to A50L, the Tm stood at 66.9 °C, the “unfolding enthalpy (calorimetric)” value turned out to be 102 kcal/mol and the “unfolding enthalpy (van 't Hoff)” value stood at 104 kcal/mol.
V118F: the melting temperature (Tm) was found to be 61 °C, the “unfolding enthalpy (calorimetric)” value is 84.6 kcal/mol and the “unfolding enthalpy (van 't Hoff)” value was 92 kcal/mol.

The data set is the same for the next values; noted with them: Homo sapiens; pH 3.28; Thermal; DSC; glycine 0.05 M; reversible: yes; structure 1LZ1; whole UniProt chain shown.
As to V92S, the Tm came out at 72.2 °C, the “unfolding enthalpy (calorimetric)” value was 117 kcal/mol and the “unfolding enthalpy (van 't Hoff)” value was 122 kcal/mol.

The data set is the same for the next values; noted with them: Homo sapiens; pH 2.59; Thermal; DSC; glycine 0.05 M; reversible: yes; structure 1LZ1; whole UniProt chain shown.
With Q76G, the Tm stood at 68.3 °C, the “unfolding enthalpy (calorimetric)” value stood at 113 kcal/mol and the “unfolding enthalpy (van 't Hoff)” value was 121 kcal/mol.

Still in this data set, the particulars now being: Homo sapiens; pH 2.78; Thermal; DSC; glycine 0.05 M; reversible: yes; structure 1LZ1; whole UniProt chain shown.
With Q76G, the Tm worked out at 72.5 °C, the “unfolding enthalpy (calorimetric)” value worked out at 119 kcal/mol and the “unfolding enthalpy (van 't Hoff)” value is 127 kcal/mol.
On the same counts, the results for R68G are 67.3 °C, 102 kcal/mol and 114 kcal/mol.

The data set is the same for the next values; noted with them: Homo sapiens; pH 3.15; Thermal; DSC; glycine 0.05 M; reversible: yes; structure 1LZ1; whole UniProt chain shown.
As for Q76G, the Tm came to 78.7 °C, the “unfolding enthalpy (calorimetric)” value came out at 127 kcal/mol and the “unfolding enthalpy (van 't Hoff)” value amounted to 135 kcal/mol.

The same data set, now with this note: Homo sapiens; pH 3.23; Thermal; DSC; glycine 0.05 M; reversible: yes; structure 1LZ1; whole UniProt chain shown.
Consider A50L, for which the Tm amounted to 73.2 °C, the “unfolding enthalpy (calorimetric)” value came out at 108 kcal/mol and the “unfolding enthalpy (van 't Hoff)” value stood at 111 kcal/mol.

Still in this data set, the particulars now being: Homo sapiens; pH 2.58; Thermal; DSC; glycine 0.05 M; reversible: yes; structure 1LZ1; whole UniProt chain shown.
Take R68G: the melting temperature (Tm) was found to be 63.7 °C, the “unfolding enthalpy (calorimetric)” value amounted to 99.9 kcal/mol and the “unfolding enthalpy (van 't Hoff)” value was 111 kcal/mol.

Still in this data set, the particulars now being: Homo sapiens; pH 3.11; Thermal; DSC; glycine 0.05 M; reversible: yes; structure 1LZ1; whole UniProt chain shown.
In the case of R68G, the Tm is 73 °C, the “unfolding enthalpy (calorimetric)” value was 113 kcal/mol and the “unfolding enthalpy (van 't Hoff)” value is 123 kcal/mol.

Still in this data set, the particulars now being: Homo sapiens; pH 2.56; Thermal; DSC; glycine 0.05 M; reversible: yes; structure 1LZ1; whole UniProt chain shown.
For the variant A114M, the Tm came to 62.5 °C, the “unfolding enthalpy (calorimetric)” value is 95.1 kcal/mol and the “unfolding enthalpy (van 't Hoff)” value was determined as 98 kcal/mol.
The like results for E53L were, in that order, 61.2 °C, 94.9 kcal/mol and 105 kcal/mol.

Staying with this data set, now noted: Homo sapiens; pH 3.19; Thermal; DSC; glycine 0.05 M; reversible: yes; structure 1LZ1; whole UniProt chain shown.
For the variant A114M, the Tm came out at 72.9 °C, the “unfolding enthalpy (calorimetric)” value stood at 109 kcal/mol and the “unfolding enthalpy (van 't Hoff)” value amounted to 112 kcal/mol.

The data set is the same for the next values; noted with them: Homo sapiens; pH 2.48; Thermal; DSC; glycine 0.05 M; reversible: yes; structure 1LZ1; whole UniProt chain shown.
G55Q: the Tm was determined as 60.7 °C, the “unfolding enthalpy (calorimetric)” value was found to be 102 kcal/mol and the “unfolding enthalpy (van 't Hoff)” value turned out to be 108 kcal/mol.

The data set is the same for the next values; noted with them: Homo sapiens; pH 2.73; Thermal; DSC; glycine 0.05 M; reversible: yes; structure 1LZ1; whole UniProt chain shown.
Take G55Q: the Tm was 64.5 °C, the “unfolding enthalpy (calorimetric)” value was 108 kcal/mol and the “unfolding enthalpy (van 't Hoff)” value is 111 kcal/mol.

The same data set, now with this note: Homo sapiens; pH 3.09; Thermal; DSC; glycine 0.05 M; reversible: yes; structure 1LZ1; whole UniProt chain shown.
For G55Q, the Tm was determined as 70.1 °C, the “unfolding enthalpy (calorimetric)” value was found to be 113 kcal/mol and the “unfolding enthalpy (van 't Hoff)” value was 118 kcal/mol.

The data set is the same for the next values; noted with them: Homo sapiens; pH 2.62; Thermal; DSC; glycine 0.05 M; reversible: yes; structure 1LZ1; whole UniProt chain shown.
Turning to V118F, the Tm was found to be 56.8 °C, the “unfolding enthalpy (calorimetric)” value turned out to be 79.1 kcal/mol and the “unfolding enthalpy (van 't Hoff)” value came to 85.1 kcal/mol.

Still in this data set, the particulars now being: Homo sapiens; pH 3.26; Thermal; DSC; glycine 0.05 M; reversible: yes; structure 1LZ1; whole UniProt chain shown.
In the case of V118F, the Tm came to 67.6 °C, the “unfolding enthalpy (calorimetric)” value is 89.4 kcal/mol and the “unfolding enthalpy (van 't Hoff)” value is 95.4 kcal/mol.

Still in this data set, the particulars now being: Homo sapiens; pH 3.25; Thermal; DSC; glycine 0.05 M; reversible: yes; structure 1LZ1; whole UniProt chain shown.
For E53L, the Tm came to 70.8 °C, the “unfolding enthalpy (calorimetric)” value came to 105 kcal/mol and the “unfolding enthalpy (van 't Hoff)” value is 110 kcal/mol.

The same data set, now with this note: Homo sapiens; pH 2.53; Thermal; DSC; glycine 0.05 M; reversible: yes; structure 1LZ1; whole UniProt chain shown.
As for H96G, the Tm was found to be 61.5 °C, the “unfolding enthalpy (calorimetric)” value is 103 kcal/mol and the “unfolding enthalpy (van 't Hoff)” value was 108 kcal/mol.

The data set is the same for the next values; noted with them: Homo sapiens; pH 2.75; Thermal; DSC; glycine 0.05 M; reversible: yes; structure 1LZ1; whole UniProt chain shown.
Take H96G: the Tm was 65.2 °C, the “unfolding enthalpy (calorimetric)” value came to 110 kcal/mol and the “unfolding enthalpy (van 't Hoff)” value is 112 kcal/mol.

Staying with this data set, now noted: Homo sapiens; pH 3.1; Thermal; DSC; glycine 0.05 M; reversible: yes; structure 1LZ1; whole UniProt chain shown.
Take H96G: the Tm is 71 °C, the “unfolding enthalpy (calorimetric)” value was found to be 118 kcal/mol and the “unfolding enthalpy (van 't Hoff)” value turned out to be 120 kcal/mol.

Broadly, the Tm is the temperature at the midpoint of the melting transition.

These data come from FireProtDB (doi:10.1093/protein/12.8.663).
